Series [1] concerns the target T1, Herves transposase (Anopheles gambiae, UniProt Q5QIT5 1-603).
T1 sequence: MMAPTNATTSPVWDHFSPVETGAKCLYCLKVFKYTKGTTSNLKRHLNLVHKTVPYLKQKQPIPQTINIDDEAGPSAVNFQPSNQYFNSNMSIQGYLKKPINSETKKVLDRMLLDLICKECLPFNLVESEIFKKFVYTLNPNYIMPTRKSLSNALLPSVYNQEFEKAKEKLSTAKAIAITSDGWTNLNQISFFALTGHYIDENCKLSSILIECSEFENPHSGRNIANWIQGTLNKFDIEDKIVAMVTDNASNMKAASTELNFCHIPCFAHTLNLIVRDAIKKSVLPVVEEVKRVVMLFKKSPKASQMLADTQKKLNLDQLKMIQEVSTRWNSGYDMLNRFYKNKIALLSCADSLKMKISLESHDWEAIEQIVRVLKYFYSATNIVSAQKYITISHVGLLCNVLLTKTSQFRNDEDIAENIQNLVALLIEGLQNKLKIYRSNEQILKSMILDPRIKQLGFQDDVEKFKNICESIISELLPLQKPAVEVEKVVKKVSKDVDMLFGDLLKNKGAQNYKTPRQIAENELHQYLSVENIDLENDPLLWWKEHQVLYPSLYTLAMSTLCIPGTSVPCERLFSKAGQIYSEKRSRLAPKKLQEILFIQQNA
Put plainly: EMSA; three complexes; competed by unlabeled bp 1-100; EMSA: 16 mM Tris pH 8.0, 150 mM NaCl, 1 mM DTT, 0.25% Triton X, 0.2 ug BSA, 0.4 ug T3 ss oligo, 0.5 ug poly(dI-dC), 4 C; 100 nM DNA, 850 nM transposase; same binding conditions for DNase I. To be noted: protein: recombinant; tags: His tag (pBAD myc/HisA vector); label: 32P. Background: A gel shift assay detects complexes by their altered migration in electrophoresis.

Series [2] addresses T1, Herves transposase. In words: competition; vs Herves-L 1-100 probe, partial compared with bp 1-100; 200-fold; EMSA: 16 mM Tris pH 8.0, 150 mM NaCl, 1 mM DTT, 0.25% Triton X, 0.2 ug BSA, 0.4 ug T3 ss oligo, 0.5 ug poly(dI-dC), 4 C; 100 nM DNA, 850 nM transposase; same binding conditions for DNase I. To be noted: protein: recombinant; tags: His tag (pBAD myc/HisA vector); label: 32P as probe.

In series [3] the target is T1, Herves transposase. In words: EMSA; two complexes; EMSA: 16 mM Tris pH 8.0, 150 mM NaCl, 1 mM DTT, 0.25% Triton X, 0.2 ug BSA, 0.4 ug T3 ss oligo, 0.5 ug poly(dI-dC), 4 C; 100 nM DNA, 850 nM transposase; same binding conditions for DNase I. To be noted: protein: recombinant; tags: His tag (pBAD myc/HisA vector); label: 32P as probe.
Series [4] deals with T1, Herves transposase. In words: EMSA; EMSA: 16 mM Tris pH 8.0, 150 mM NaCl, 1 mM DTT, 0.25% Triton X, 0.2 ug BSA, 0.4 ug T3 ss oligo, 0.5 ug poly(dI-dC), 4 C; 100 nM DNA, 850 nM transposase; same binding conditions for DNase I. To be noted: protein: recombinant; tags: His tag (pBAD myc/HisA vector); label: 32P as probe.
In series [5] the target is T1, Herves transposase. In words: EMSA; one complex; EMSA: 16 mM Tris pH 8.0, 150 mM NaCl, 1 mM DTT, 0.25% Triton X, 0.2 ug BSA, 0.4 ug T3 ss oligo, 0.5 ug poly(dI-dC), 4 C; 100 nM DNA, 850 nM transposase; same binding conditions for DNase I. To be noted: protein: recombinant; tags: His tag (pBAD myc/HisA vector); label: 32P as probe.
In series [6] the target is T1, Herves transposase. In words: EMSA; two complexes; competed by self; EMSA: 16 mM Tris pH 8.0, 150 mM NaCl, 1 mM DTT, 0.25% Triton X, 0.2 ug BSA, 0.4 ug T3 ss oligo, 0.5 ug poly(dI-dC), 4 C; 100 nM DNA, 850 nM transposase; same binding conditions for DNase I. To be noted: protein: recombinant; tags: His tag (pBAD myc/HisA vector); label: 32P.
Series [7] deals with T1, Herves transposase. Put plainly: competition; vs Herves-L 1-100 probe; 200-fold; EMSA: 16 mM Tris pH 8.0, 150 mM NaCl, 1 mM DTT, 0.25% Triton X, 0.2 ug BSA, 0.4 ug T3 ss oligo, 0.5 ug poly(dI-dC), 4 C; 100 nM DNA, 850 nM transposase; same binding conditions for DNase I. To be noted: protein: recombinant; tags: His tag (pBAD myc/HisA vector).

B1: Herves-L bp 1-100 (dsDNA)
DNA 1: TAGAGTTGTGCCTCAAGAACCAGAACTGTACGATTCATTCAATTCATCCTAAAGAACGAATGACCTACGTTCATCTAATCAACGTTCATCGATTCTTTAT
DNA 2: ATAAAGAATCGATGAACGTTGATTAGATGAACGTAGGTCATTCGTTCTTTAGGATGAATTGAATGAATCGTACAGTTCTGGTTCTTGAGGCACAACTCTA
Consider B1, for which, in the series with Herves transposase [1], the binding result is listed as “binds”.

B2: Herves-L bp 28-60 (dsDNA)
DNA 1: GTACGATTCATTCAATTCATCCTAAAGAACGAA
DNA 2: TTCGTTCTTTAGGATGAATTGAATGAATCGTAC
As to B2, in the series with Herves transposase [2], the binding result was “binds”.

B3: (CGATTCAT)4 (dsDNA)
DNA 1: CGATTCATCGATTCATCGATTCATCGATTCAT
DNA 2: ATGAATCGATGAATCGATGAATCGATGAATCG
For the molecule B3, in the series with Herves transposase [3], the binding result is “binds”.

B4: Herves-R bp 46-75 (dsDNA)
DNA 1: GTTCTTTCATTAACATGAACTGAGCGTGAA
DNA 2: TTCACGCTCAGTTCATGTTAATGAAAGAAC
For B4, the binding result with Herves transposase [4] was “no binding”.

B5: Herves-R bp 1-30 (dsDNA)
DNA 1: TAGGGTTGGGCAATTCGATTCATTACCATG
DNA 2: CATGGTAATGAATCGAATTGCCCAACCCTA
For B5, the binding result with Herves transposase [3] is listed as “binds”.

B6: Herves-R bp 15-45 (dsDNA)
DNA 1: TCGATTCATTACCATGAACGTGAATTTACCG
DNA 2: CGGTAAATTCACGTTCATGGTAATGAATCGA
As to B6, in the series with Herves transposase [5], the binding result is listed as “binds”.

B7: Herves-R bp 1-100 (dsDNA)
DNA 1: TTGACGTGAACGATTGAATCGCGATTCACGCTCAGTTCATGTTAATGAAAGAACCGGTAAATTCACGTTCATGGTAATGAATCGAATTGCCCAACCCTA
DNA 2: TAGGGTTGGGCAATTCGATTCATTACCATGAACGTGAATTTACCGGTTCTTTCATTAACATGAACTGAGCGTGAATCGCGATTCAATCGTTCACGTCAA
In the case of B7, in the series with Herves transposase [6], the binding result is reported as “binds”.

B8: Herves-R bp 61-90 (dsDNA)
DNA 1: TGAACTGAGCGTGAATCGCGATTCAATCGT
DNA 2: ACGATTGAATCGCGATTCACGCTCAGTTCA
For the molecule B8, in the series with Herves transposase [5], the binding result is recorded as “binds”.

B9: Herves-L bp 1-30 (dsDNA)
DNA 1: TAGAGTTGTGCCTCAAGAACCAGAACTGTA
DNA 2: TACAGTTCTGGTTCTTGAGGCACAACTCTA
In the case of B9, in the series with Herves transposase [7], the binding result is reported as “no binding”.

B10: Herves-L bp 12-48 (dsDNA)
DNA 1: CTCAAGAACCAGAACTGTACGATTCATTCAATTCATC
DNA 2: GATGAATTGAATGAATCGTACAGTTCTGGTTCTTGAG
On to B10, for which the binding result with Herves transposase [3] is listed as “binds”.

For the origin of these results see article PMC3143072, “DNA binding activities of the Herves transposase from the mosquito Anopheles gambiae”.
